Experimental data published in patent US20180009892A1.

Target: human ROR1 extracellular domain (ECD) protein (human) (UniProt Q01973)
Assay: ForteBio Octet, blocking of Wnt5a binding to ROR1

human ROR1 extracellular domain (ECD) protein (human), sequence (Q01973 30-406 limits assumed): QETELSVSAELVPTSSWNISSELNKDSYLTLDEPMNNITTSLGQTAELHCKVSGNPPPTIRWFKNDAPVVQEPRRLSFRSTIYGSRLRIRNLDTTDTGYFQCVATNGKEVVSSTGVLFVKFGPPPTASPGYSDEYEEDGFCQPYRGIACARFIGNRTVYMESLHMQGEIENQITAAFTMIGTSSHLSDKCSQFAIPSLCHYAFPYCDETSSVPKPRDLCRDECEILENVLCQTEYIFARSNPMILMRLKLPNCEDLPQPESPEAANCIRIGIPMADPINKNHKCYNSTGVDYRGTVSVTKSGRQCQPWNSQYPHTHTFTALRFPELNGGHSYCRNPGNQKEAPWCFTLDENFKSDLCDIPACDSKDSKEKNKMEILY

For mAb Control (antibody), the Percentage Blocking was 0%.
